Measurements from patent publication US20250340655A1, “EPHA2-TARGETING ANTIBODIES AND THEIR APPLICATIONS IN CANCER TREATMENT” (TAIPEI MEDICAL UNIVERSITY, priority 2022, published 2025).
Values belong to the molecule of their own block, whether it stands above or below them.

Key:
BxPc-3 cells = assay: Antibody internalization (endocytosis) assay; assay type: cell-based, human; settings: BxPc-3, 1 h, 37° C. vs 4° C. (FIG. 6B)
Method: BxPc-3 cells were seeded on cover glasses placed in the wells of a 6-well culture plate. The BxPc-3 seeded glass slides were incubated with ephrin A1-Fc (Sino Biological) or IgG hSD5 for 1 h at 37° C. or 4° C. After washing with PBS, the cells were fixed with 100% ice methanol for 10 min. Next, the cells were stained with an FITC-conjugated anti-human Fc antibody and were subsequently mounted with ProLong Diamond Antifade Mountant comprising 4′,6-diamidino-2-phenylindole for nuclear counterstaining (Invitrogen). The cells were imaged using a confocal microscope (Leica Microsystems).

BxPc-3 tumor = BxPc-3 tumor xenograft model (IgG hSD5, gemcitabine); assay type: in vivo, mouse
Method: The freshly prepared BxPc-3 and Mia PaCa-2 cancer cells were harvested during the log growth phase and resuspended in PBS for tumor implantation. Each NOD/SCID mouse was subcutaneously inoculated with cancer cells (5×10^6 to BxPc-3 and 1×10^7 to Mia PaCa-2) for tumor formation. The tumor size was measured twice weekly, and the volume was calculated as follows: V=0.5lw^2, where l=the length and w=the width. When the tumor size was approximately 100 mm3, animals were divided into groups that received (a) vehicle alone through intravenous injection (i.v.) once weekly (qwk), (b) control human IgG1 at 20 mg/kg through i.v. qwk, (c) and (d) hSD5 IgG1 at 2 or 20 mg/kg through i.v. qwk, (e) and (f) gemcitabine at 20 or 100 mg/kg through i.v. twice weekly (biw), or (g) hSD5 IgG1 at 2 mg/kg through i.v. qwk combined with gemcitabine at 20 mg/kg through i.v. biw. At the end of the experiment, the antitumor effects were quantified by dividing the tumor volumes in the treatment groups by those in the control groups and multiplying them by 100 to represent tumor growth inhibition (TGI; %). The mice were also examined frequently for overt signs of adverse drug-related side effects.
The pancreatic tissue microarray slide (US Biomax, PA483e) was used to detect and analyze the EphA2 expression of clinical samples. In the xenograft animal model, the excised BxPc-3 and Mia PaCa-2 tumors were fixed in formalin, embedded in paraffin, and sliced for immunohistochemical staining (IHC). Commercial antibodies (Cell signaling, Dako; Agilent Technologies; and Abcam) were used for staining the EphA2 molecule, cell proliferation marker Ki-67, and apoptosis marker cleaved caspase 3. The effects of staining were observed using a Zeiss Axioskop-2 microscope (Carl Zeiss).
Administration of IgG hSD5 (20 mg/kg, iv, qwk, indicated as blue filled inverted triangles) and Gemcitabine (100 mg/kg, iv, biw, indicated as orange filled squares) were used to test the inhibition effect on BxPc-3 tumor growth, n=6, TGI denotes Tumor growth inhibition. (FIG. 7A) Administration of IgG hSD5 (2 mg/kg, iv, qwk, indicated by solid black triangles), Gemcitabine (20 mg/kg, iv, biw, indicated by black open squares), and the experimental group that combined IgG and Gemcitabine treatment simultaneously (indicated by solid red diamonds) were used to teat the growth inhibitory effect of BxPc-3 on the tumor. (FIG. 7B) During treatments, the weight changes of each mouse group were tracked. (FIG. 7C) The expression levels of EphA2, cell proliferation marker Ki67, and apoptosis-related marker cleaved caspase3 in the excised tumor groups were analyzed by IHC staining. (FIG. 7D)

[1] = biological target: T1, EphA3 overexpressed on 293T cells (UniProt P29320 21-983, limits assumed); assay: flow cytometry on 293T cells overexpressing EphA1-A8
T1 construct: whole, on cells
T1 sequence (looked up): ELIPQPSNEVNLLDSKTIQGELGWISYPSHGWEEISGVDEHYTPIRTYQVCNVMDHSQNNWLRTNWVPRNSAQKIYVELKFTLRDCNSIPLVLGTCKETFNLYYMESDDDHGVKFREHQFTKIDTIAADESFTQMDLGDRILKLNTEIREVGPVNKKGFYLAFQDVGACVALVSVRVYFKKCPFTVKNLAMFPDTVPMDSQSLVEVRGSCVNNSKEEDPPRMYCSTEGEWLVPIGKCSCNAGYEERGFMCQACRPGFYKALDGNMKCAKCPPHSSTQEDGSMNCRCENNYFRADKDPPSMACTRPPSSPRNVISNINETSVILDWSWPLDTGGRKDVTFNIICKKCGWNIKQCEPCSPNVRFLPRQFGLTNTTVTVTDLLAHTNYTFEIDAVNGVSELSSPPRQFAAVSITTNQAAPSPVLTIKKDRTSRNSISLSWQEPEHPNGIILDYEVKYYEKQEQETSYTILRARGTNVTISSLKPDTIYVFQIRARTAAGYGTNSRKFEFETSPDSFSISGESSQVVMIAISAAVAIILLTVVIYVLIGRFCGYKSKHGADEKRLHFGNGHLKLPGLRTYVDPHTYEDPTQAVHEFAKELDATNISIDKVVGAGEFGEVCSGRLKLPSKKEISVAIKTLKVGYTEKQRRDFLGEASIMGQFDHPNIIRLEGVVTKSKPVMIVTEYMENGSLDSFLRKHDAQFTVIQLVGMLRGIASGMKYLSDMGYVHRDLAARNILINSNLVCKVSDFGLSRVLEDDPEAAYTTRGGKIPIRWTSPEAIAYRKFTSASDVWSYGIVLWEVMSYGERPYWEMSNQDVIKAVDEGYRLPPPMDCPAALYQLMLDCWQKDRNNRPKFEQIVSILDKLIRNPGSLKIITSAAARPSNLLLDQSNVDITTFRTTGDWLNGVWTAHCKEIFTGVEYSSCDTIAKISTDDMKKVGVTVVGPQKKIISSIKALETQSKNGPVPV
Method: (§1) To detect the binding specificity of scFv, 293T cells were transformed with EphA1-A8 plasmids individually for overexpression of different EphA molecules. The cell line was freshly prepared and washed with FACS buffer (2% FBS in PBS). The cells were seeded at 1×10⁵ cells/well into a 96-well Ubottom plate and incubated with scFv for 1 h at 4° C. After the plate was washed with FACS buffer, the anti-hemagglutinin (HA) antibody was added for scFv binding detection (scFv was fused with a HA tag) and subsequently developed using an FITC-conjugated secondary antibody. Finally, the cell binding signal was analyzed using a FACS can flow cytometer.

[2] = biological target: T2, EphA5 overexpressed on 293T cells (UniProt P54756 25-1037, limits assumed); assay: as above
T2 construct: whole, on cells
Method: as §1

[3] = biological target: T3, EphA7 overexpressed on 293T cells (UniProt Q15375 28-998, limits assumed); assay: as above
T3 construct: whole, on cells
Method: as §1

T2 sequence (P54756 25-1037 limits assumed): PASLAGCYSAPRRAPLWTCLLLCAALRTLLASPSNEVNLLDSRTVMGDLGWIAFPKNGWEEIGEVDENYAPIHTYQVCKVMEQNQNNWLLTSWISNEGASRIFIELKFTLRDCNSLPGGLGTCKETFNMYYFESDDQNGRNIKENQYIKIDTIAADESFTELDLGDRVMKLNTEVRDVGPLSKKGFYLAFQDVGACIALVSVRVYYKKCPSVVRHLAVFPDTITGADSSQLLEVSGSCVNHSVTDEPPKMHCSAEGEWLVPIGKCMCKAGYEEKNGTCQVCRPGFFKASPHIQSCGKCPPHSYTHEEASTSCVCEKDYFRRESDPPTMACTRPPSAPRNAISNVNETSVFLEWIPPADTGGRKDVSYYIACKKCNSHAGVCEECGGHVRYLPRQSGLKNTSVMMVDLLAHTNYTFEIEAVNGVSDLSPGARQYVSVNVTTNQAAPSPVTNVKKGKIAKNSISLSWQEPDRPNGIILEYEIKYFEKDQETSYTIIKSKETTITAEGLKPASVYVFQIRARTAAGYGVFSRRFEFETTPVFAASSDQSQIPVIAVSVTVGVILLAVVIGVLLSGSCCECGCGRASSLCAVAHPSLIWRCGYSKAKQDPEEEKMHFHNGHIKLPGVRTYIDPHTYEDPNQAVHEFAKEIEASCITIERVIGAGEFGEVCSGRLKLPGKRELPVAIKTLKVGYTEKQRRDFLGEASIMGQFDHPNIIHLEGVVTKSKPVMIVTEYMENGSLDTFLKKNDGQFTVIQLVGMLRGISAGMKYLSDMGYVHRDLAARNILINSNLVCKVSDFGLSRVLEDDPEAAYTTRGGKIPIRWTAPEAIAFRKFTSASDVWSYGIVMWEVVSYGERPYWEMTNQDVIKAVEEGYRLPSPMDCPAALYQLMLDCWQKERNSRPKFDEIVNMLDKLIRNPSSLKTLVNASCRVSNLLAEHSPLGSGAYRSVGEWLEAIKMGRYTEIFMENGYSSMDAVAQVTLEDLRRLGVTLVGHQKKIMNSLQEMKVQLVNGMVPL
T3 sequence (Q15375 28-998 limits assumed): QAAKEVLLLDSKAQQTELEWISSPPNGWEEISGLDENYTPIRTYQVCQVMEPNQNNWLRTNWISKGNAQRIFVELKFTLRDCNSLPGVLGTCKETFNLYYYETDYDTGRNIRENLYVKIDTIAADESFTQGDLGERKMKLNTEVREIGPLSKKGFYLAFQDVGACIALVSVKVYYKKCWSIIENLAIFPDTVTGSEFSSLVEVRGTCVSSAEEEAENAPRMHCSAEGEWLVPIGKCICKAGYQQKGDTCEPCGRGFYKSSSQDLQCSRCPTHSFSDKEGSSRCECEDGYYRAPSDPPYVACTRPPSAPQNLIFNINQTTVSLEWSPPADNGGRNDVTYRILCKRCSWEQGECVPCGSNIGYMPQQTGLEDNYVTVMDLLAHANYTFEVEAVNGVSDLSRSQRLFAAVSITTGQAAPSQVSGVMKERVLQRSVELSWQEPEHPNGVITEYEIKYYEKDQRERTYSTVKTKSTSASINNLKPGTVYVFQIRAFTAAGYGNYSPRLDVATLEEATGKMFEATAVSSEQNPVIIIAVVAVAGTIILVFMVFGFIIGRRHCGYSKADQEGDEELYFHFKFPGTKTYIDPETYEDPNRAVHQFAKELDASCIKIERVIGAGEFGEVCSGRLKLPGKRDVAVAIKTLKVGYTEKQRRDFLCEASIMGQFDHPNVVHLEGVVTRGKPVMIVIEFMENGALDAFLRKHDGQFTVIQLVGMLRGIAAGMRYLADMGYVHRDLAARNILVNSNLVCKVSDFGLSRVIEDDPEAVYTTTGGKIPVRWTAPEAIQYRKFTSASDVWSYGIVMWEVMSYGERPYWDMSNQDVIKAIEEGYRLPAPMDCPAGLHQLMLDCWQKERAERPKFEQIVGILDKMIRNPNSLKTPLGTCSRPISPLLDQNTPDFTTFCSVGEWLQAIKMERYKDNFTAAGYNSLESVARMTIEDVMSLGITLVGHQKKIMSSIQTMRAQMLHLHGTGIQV

B1: IgG hSD5: complete humanized anti-EphA2 IgG (IgG1) of hSD5 (antibody, V domains shown)
VH: QVQLVESGGGLVQPGGSLRLSCAASGFTFSDYGMGWVRQAPGKGLEWVAGISAAGSFTPYGAAVKGRFTISRDNSKNTVYLQMNSLRAEDTAVYYCARIPSGYRAGEIYTWGQGTLVTVSS
VL: LTQPPSVSVSPGQTVRITCSGSSGSYGWYQQKSPGQAPVTLIYDNDKRPSGIPERFSGSSSGSTSTLTISGVQAEDEADYYCGSADSSTYVGMFGGGTKLTVL
endocytosis after targeting EphA2 (BxPc-3 cells): endocytosed from the cell membrane into the cytoplasm
effect on growth of tumors in vivo (BxPc-3 tumor; BxPc-3 xenograft mice): significantly inhibited the growth of tumors
TGI (tumor growth inhibition) (BxPc-3 tumor; BxPc-3 xenograft, 20 mg/kg, iv, qwk): 53.1%
expression levels of EphA2 and Ki-67 in the tumors (BxPc-3 tumor; IHC of removed BxPc-3 tumors, compared with control IgG group (FIG. 7D)): significantly decreased

binding result [1]: no binding
binding result [2]: no binding
binding result [3]: no binding
B2: Humanized scFv hSD5 (scFv)
scFv: LTQPPSVSVSPGQTVRITCSGSSGSYGWYQQKSPGQAPVTLIYDNDKRPSGIPERFSGSSSGSTSTLTISGVQAEDEADYYCGSADSSTYVGMFGGGTKLTVLGQSSRSSQVQLVESGGGLVQPGGSLRLSCAASGFTFSDYGMGWVRQAPGKGLEWVAGISAAGSFTPYGAAVKGRFTISRDNSKNTVYLQMNSLRAEDTAVYYCARIPSGYRAGEIYTWGQGTLVTVSS
notes: also called hSD5 scFv; Humanized scFv hSDS
